Measured values taken from patent publication US20180246080A1, “METHODS USING AXL AS A BIOMARKER OF EPITHELIAL-TO-MESENCHYMAL TRANSITION” (BERGEN TEKNOLOGIOVERFORING AS, priority 2009, published 2018).

Columns and labels:
mouse Axl = assay: Flow cytometry of mouse Axl surface expression in 4T1-GFP-Luc cells; format: cell-based; settings: 4T1 cells, retroviral shRNA expression
Experimental: (§1) The MDA-MB-231 cells were trypsinated using standard procedures and washed in PBS-0.2% BSA before staining with anti-Axl (#MAB154, R&D Systems) at a final concentration of […] in PBS-0.2% BSA for 40 minutes at room temperature. Cells were washed twice in PBS-0.2% BSA) and incubated with secondary antibody (Goat anti-mouse APC (Allophyocyanin, crosslinked, Molecular Probes) at a final concentration of 0.2 mg/ml for 30 minutes at room temperature in the dark. Cells were washed twice with PBS-2% BSA and resuspended in […] PBS-0.2% BSA before analysis on a FacsCalibur Flow Cytometer (BD Biosciences). Data analyses were carried out using the FlowJo software (Tree Star, Inc., Ashland, Oreg., USA).
In order to validate our results in a different metastatic model we transduced the highly metastatic mouse breast carcinoma 4T1 cell line with the CSI-construct and selected for GFPluciferase expression by FACS (4T1-GFP-Luc). […] A mismatched human Axl-targeting shRNA (shAxl279) had no effect on mouse Axl expression.

Axl = assay: FACS analysis of Axl expression in epi-allelic MDA-MB-231 cell series; format: cell-based, human; settings: MDA-MB-231/GFP-Luc cells
Text: All shRNAs were expressed from a modified human U6 promoter in the LTR of the retroviral vectors RRI-Red/L087 (Genbank: EU424173) used to transform MDA-MB-231 cells via retroviral infection. RRI-Red also expresses Puro2AmRed1 resulting in puromycin resistance and red fluorescence in successfully transformed cells. All Axl cDNA nucleotides are numbered as in Genbank: BC032229.
as §1, with “Data analyses were carried out using the FlowJo software (Tree Star, Inc., Ashland, Oreg., USA).” left out
The strong correlation of Axl expression in early breast carcinomas with poor survival indicates an important role for Axl in overall disease pathogenesis. As breast cancer-related mortality invariably results from complications of metastatic disease, we assessed whether Axl expression was required for malignant breast carcinoma cell invasiveness. […]

MDA-MB-231-D3H2LN cells = assay: Mammary fat pad spontaneous metastasis model, bioluminescence imaging; format: in vivo, NOD-SCID mice
Experimental: BLI was performed using a eXplore Optix (GE Healtcare) camera mounted in a specimen box. Imaging and quantification of signals was done using eXplore Optix software. For in vivo imaging, animals received via intraperitoneal injection (i.p) the substrate D-luciferin (Biosynth), 150 mg/kg in PBS (Phosphate Buffered Saline) and anesthetized with isoflurane. Mice were placed into warmed stage inside of camera box with continuous exposure to 1-2% isoflurane and imaged for different views depending on the tumor model. Region of interest were identified and were quantified as total photon/sec-1 using eXplore Optix software (GE Explore Optix). In vivo background bioluminescence was in the range of 2-3×10 photon counts. […]
Subline of human MDA-MB-231 cells (called MDA-MB 231 DH3L2N—Xenogen) which express GFP-Luc biomarker and different RNAs interference that regulate Axl expression were injected into mammary pad of mice. […] Tumor growth and metastasis spread was monitored every second week by bioluminescent imaging for up to 9 weeks. […]
In order to evaluate the requirement of Axl for breast cancer metastasis, we orthotopically injected MDA-MB-231-D3H2LN, a rapidly growing and highly metastatic in vivo MDA-231 isolate, into the mammary fat pad. Using whole body bioluminescent imaging we temporally monitored spontaneous metastasis development over a 9-week period. […]

MDA-MB-231/GFP-Luc cells = assay: Tissue engineered tricellular tumor implants (MDA-MB-231, EC, SMC) in scaffolds; format: in vivo, NOD-SCID mice
Text: 1×10^6 MDA-MB 231 cells which express GFP-Luc biomarker and different RNAs interference that regulate Axl expression, were suspended in a 1:1 mixture of F-12 Kaighn's (Invitrogen) :Matrigel (BD Biosciences) and seeded in 6×6 mm Poly-lactic acid (PLLA) scaffolds.
Females NOD/SCID/B2mnull were anesthetized by exposure to 1-2% isoflurane (Isoba vet.-Schering-Plough A/S) during the implantation procedure and on subsequent imaging days. Two scaffolds were implanted subcutaneously (s.c) in each mouse according to Nor et al. Lab Invest.; 81 (4) 453; 2001 Scaffolds with cells that express Axl were implanted on the left side of each mouse while on the right side scaffolds with cells in which Axl was knockdown. After the surgical procedure, anesthetized mice were placed in Imaging System and imaged for both left and right sides 10-15 min after intraperitoneal injection of 150 mg/kg D-luciferin (Biosynth). Tumor development was monitored in vivo once a week by imaging for 4 weeks.
For tricellular implant MDA-MB-231 cells infected with shRNA vectors and GFP-Luc were mixed with Human dermal microvascular endothelial cells (HMVEC), and pulmonary artery smooth muscle cells (PASMC) in ratio of 1:2:2. Tumor growth was monitored weekly in vivo by imaging for 4 consecutive weeks.
To ascertain whether Axl influences the ability of breast cancer cells to attract and co-opt blood vessels, we developed a tri-cellular implant approach comprising MB-MDA-231 cells seeded together with primary human microvascular endothelial (HuMVEC) and vascular smooth muscle cells (vSMC) to create tumor vasculature. Implants of human EC-vSMC cells readily form perfused intrascaffold human microvasculature in NOD-SCID mice within a two-week period (Hegen et al., in preparation). […] The engineered human tumor vasculature is evenly distributed and perfused with intralumenal red blood cells. In contrast, Axl knockdown, blocked tumor formation, without affecting development of a perfused human microvasculature.

Molecule | mouse Axl surface levels (mouse Axl) | Axl knockdown efficacy (Axl-targeting shRNA) (Axl) | Overall survival (MDA-MB-231-D3H2LN cells; orthotopically injected MDA-MB-231-D3H2LN/GFP-Luc cells, P=0.013 log-rank test vs control) | Spontaneous metastasis (MDA-MB-231-D3H2LN cells; whole body bioluminescent imaging over 9 weeks) | Intrascaffold vessel diameter (MDA-MB-231/GFP-Luc cells; excised tumors, 28 days) | Microvascular density (MDA-MB-231/GFP-Luc cells; excised tumors, 28 days) | Tissue engineered tumor growth (MDA-MB-231/GFP-Luc cells; tricellular implants, in vivo imaging)
shAxl279: ineffective human Axl-targeting shRNA, SEQ ID NO: 3, used as control (nucleic acid, listed as Homo sapiens) GCTTCAGGCGATTTCCCCGGCGTTGGATCCCTGGTCGGATCCAACGCCGGGGAAATCGCCTGAAGC | had no effect | ineffective | – | – | – | – | –
shAxl2: human Axl-targeting shRNA, SEQ ID NO: 1, expressed from retroviral vector (nucleic acid, listed as Homo sapiens) GACATCCTCTTTCTCCTGCGAAGCCCATCTGGTCATGGGCTTCGCAGGAGAAAGAGGATGTC | – | – | significantly increased | no metastases were detected | unaffected | slightly enhanced | inhibited
